According to patent EP4644426A1 (Gan & Lee Pharmaceuticals Co., Ltd., dated 2025):

Legend:
[1] = target: T1, human FXIa factor (human, UniProt P03951 19-625); assay: cell-based or functional assay
[2] = target: T1, human FXIa factor; assay: cell-based or functional assay; remark: listed apart in the source
[3] = target: T1, human FXIa factor; assay: cell-based or functional assay; remark: listed apart in the source
[4] = target: T1, human FXIa factor; assay: cell-based or functional assay; remark: listed apart in the source
[5] = target: T1, human FXIa factor; assay: Biacore 8K (SPR), human FXIa in 2-fold dilution series
[6] = target: T1, human FXIa factor; assay: cell-based or functional assay; remark: listed apart in the source

B1: chimeric antibody 14F3 (antibody, V domains shown)
VH: QVQLQQSGAELVRPGTSVTVSCKASGYAFSNYLIEWVNQRPGQGLEWIGVINPGSGYTNYNENFKDKATLTADTSSSTAYMQLSSLTSDDSAVYFCARTYGKYGGAMDFWGQGTSVTVSS
VL: DIVMTQTPKFLLVSAGDRVTITCKASQSVSNDVAWYQQKPGQSPKLLIYYISNRYTGVPDRFTGSGYGTDFTFTINTVQAEDLAVYFCQQDYSSPPTFGGGTKLEIK
[1]
  IC50(nM) from S2366 assay (First Batch): 78.7 nM
[2]
  FXIa Kit Activity Assay (nM), IC50 (First Batch): 7.77 nM

B2: chimeric antibody 29E10C4 (antibody, V domains shown)
VH: QVKLEESGAELVRPGTSVKVSCKASGYAFTDYFIEWIKQRPGQGLEWIGVINPGNDVTNYNEKFKGKATLTVDKSSTTAYMQLSSLTSDDSAVYFCTRSAGNYENSMDFWGQGTSVTVSS
VL: DIVLTQSPKFLLVSAGDRVTITCKASQSVSNDVGWYQQKPGQSPKLLIYYTSNRYTGVPDRFTGSGYGTDFTFTISSVQAEDLAVYFCQQDYHFPLTFGAGTKLELK
[1]
  IC50(nM) from S2366 assay (Second Batch): 34.9 nM
[2]
  FXIa Kit Activity Assay (nM), IC50 (Second Batch): 0.219 nM

B3: chimeric antibody 17E3C10 (antibody, V domains shown)
VH: QVKLQESGPELRKPGETVYISCKASGYTFTNYGVNWVKQAPGKGLKWMGWINTYTGEPIYADDFKGRFAFSLETSANTAYLQISNLTNEDTATYFCARLYLYGNTYDYYAMDYWGQGTSVTVSS
VL: DIVLTQTPSSMYASLGERVTITCKASQDISTYLSWFQQKPGKSPKTLIYRANRLIDGVPSRFSGSGSGQDFSLTISSLEYEDMGVYYCLQYDDLNTFGGGTKLEIK
[1]
  IC50(nM) from S2366 assay (Second Batch): 44.4 nM
[2]
  FXIa Kit Activity Assay (nM), IC50 (Second Batch): 0.781 nM

B4: chimeric antibody 19C9C10 (antibody, V domains shown)
VH: EVKLEESGAELVKTGASVKLSCTASGFNIKDTYMHWVKQRPEQGLEWIGRIDPANDNTKYDPKFQGRATVTADTSSNTAYLQLISLTSEDTAVYYCAGDYDGYAMDYWGQGTSVTVSS
VL: DIVMTQTTSSLSVSLGGKVTITCKASQDINKYVAWFQHKPGKGPRLLMHYTSTLEPGIPSRFSGSGSGRDYSFTISNLEPEDIATYYCLQYDNLLTFGGGTKLEIK
[1]
  IC50(nM) from S2366 assay (Second Batch): 38.5 nM
[2]
  FXIa Kit Activity Assay (nM), IC50 (Second Batch): 1.31 nM

B5: chimeric antibody 11E8 (antibody, V domains shown)
VH: EVKLQESGPELVKTGASVKISCKASGYSFTGYFMNWVKQSHGKSLEWIGFINCYNGATSYNQKFKGKATFTVDASSSSAYMQFNSLTSEDSAVYYCARTISTGDSFDYWGQGSTLTVSS
VL: DIVMTQSTSYLSVSLGGRVTITCKASDHINNWLAWYQQKPGDAPSLLISGASRLETGVPSRFSGSGSGKDYTLSITSLQTEDVATYYCQQYWTTPFTFGSGTKLEIK
[1]
  IC50(nM) from S2366 assay (Third Batch): 93.1 nM
[2]
  FXIa Kit Activity Assay (nM), IC50 (Third Batch): 7.8 nM

B6: chimeric antibody 3B3 (antibody, V domains shown)
VH: EVQLEESGADLVRPGTSVKVSCKASGYAFTNYLIDWLKQRPGQGLEWIGVINPGSGITNYNEKFKGKATLTTDTSSSTAYMQLTNLTSDDSAVYFCARGDGTYYEDFLDYWGQGTSVTVSS
VL: DIVLTQTTSSIYTSLGERVTITCKASQDINSYLSWFQQRPGRSPKTLIYRANRLMDGVPSRFSGSGSGRDFSLTISSLDYEDMGIYYCLQYDEFPLTFGAGTKLELK
[1]
  IC50(nM) from S2366 assay (Fourth Batch): 42.4 nM

B7: 24B6-sy (antibody, V domains shown)
VH: EVQLQESGGDLVKPGGSLKLSCAASGFTFSSYGMSWVRQTPDKRLEWVATISSGGSFTYYPDSVKGRFTISRDNAKNTLYLQMSSLKSEDTAMYYCASLTSEGYAMEYWGQGTSVTVSS
VL: DIVLTQSPASLAVSLGQRATISCRASKSVSTSGYSHMHWYQQKLGQPPKLLIYLASNLESGVPARFSGSGSGTDFTLNIHPVEEEDAATYYCQHSRELPYTFGGGTKLEIK
[3]
  OD405nm, S2366 activity assay, antibody at 20µg/mL: 0.268 OD405nm

B8: chimeric antibody 24B6 (antibody, V domains shown)
VH: EVQLQESGGDLVKPGGSLKLSCAASGFTFSSYGMSWVRQTPDKRLEWVATISSGGSFTYYPDSVKGRFTISRDNAKNTLYLQMSSLKSEDTAMYYCASLTSEGYAMEYWGQGTSVTVSS
VL: DIVLTQSPASLAVSLGQRATISCRASKSVSTSGYSHMHWYQQKLGQPPKLLIYLASNLESGVPARFSGSGSGTDFTLNIHPVEEEDAATYYCQHSRELPYTFGGGTKLEIK
[1]
  IC50(nM) from S2366 assay (First Batch): 122 nM
[2]
  FXIa Kit Activity Assay (nM), IC50 (First Batch): 6.7 nM

B9: chimeric antibody 17E10 (antibody, V domains shown)
VH: EVQLEESGPGLVKPSQSLSLTCSVTGYSITSGFYWNWIRQFPGNKLEWMGYISFDGRHNYNPSLKNRFSITRDTSKNQFFLKLTSVTAEDTATYYCARDLITTVYYYPMDYWGQGTSVTVSS
VL: DIVMTQSHKFMSTSVGDRVSITCKASQDVGTAVDWYQQKTGQSPKLLIYWASTRHTGVPDRFTGSGSGTDFTLTISNVQSEDLADYFCQQYSNYPLTFGAGTKLELK
[2]
  FXIa Kit Activity Assay (nM), IC50 (First Batch): 11.6 nM

B10: Osocimab (antibody, V domains shown)
VH: EVQLLESGGGLVQPGGSLRLSCAASGFTFSQYGMDWVRQAPGKGLEWVSGIGPSGGSTVYADSVKGRFTISRDNSKNTLYLQMNSLRAEDTAVYYCTRGGPYYYYGMDVWGQGTTVTVSS
VL: DIQMTQSPSSLSASVGDRVTITCQASQDISNYLNWYQQKPGKAPKLLIYDASNLETGVPSRFSGSGSGTDFTFTISSLQPEDIATYYCQQADSFPVTFGGGTKVEIK
[4]
  IC50 (nM) from S2366 Assay: 226 nM
[5]
  Kd: 6.37 nM
  koff: 0.00411 s⁻¹
  kon: 645000 M⁻¹ s⁻¹
[6]
  FXIa kit Activity Assay (nM), IC50: 32.5 nM

B11: 14F3-sy (antibody, V domains shown)
VH: QVQLQQSGAELVRPGTSVTVSCKASGYAFSNYLIEWVNQRPGQGLEWIGVINPGSGYTNYNENFKDKATLTADTSSSTAYMQLSSLTSDDSAVYFCARTYGKYGGAMDFWGQGTSVTVSS
VL: DIVMTQTPKFLLVSAGDRVTITCKASQSVSNDVAWYQQKPGQSPKLLIYYISNRYTGVPDRFTGSGYGTDFTFTINTVQAEDLAVYFCQQDYSSPPTFGGGTKLEIK
[3]
  OD405nm, S2366 activity assay, antibody at 20µg/mL: 0.211 OD405nm

B12: humanized antibody 14F3-Z1 (antibody, human IgG1, kappa, V domains shown)
VH: QVQLVQSGAEVKKPGASVKVSCKASGYAFSNYLIEWVGQAPGQGLEWMGVINPGSGYTNYNENFKDRVTMTAHTSISTAYMELSRLRSDDTAVYFCARTYGKYGGAMDFWGQGTLVTVSS
VL: DIQMTQSPSSLSASVGDRVTITCKASQSVSNDVAWYQQKPGKAPKLLIYYISNRYTGVPSRFSGSGSGTDFTFTISSLQPEDIATYFCQQDYSSPPTFGQGTKLEIKR
[4]
  IC50 (nM) from S2366 Assay: 54.1 nM
[6]
  FXIa kit Activity Assay (nM), IC50: 8.53 nM

B13: humanized antibody 14F3-Z2 (antibody, human IgG1, kappa, V domains shown)
VH: QVQLVQSGAEVKKPGASVKVSCKASGYAFSNYLIEWVGQAPGQGLEWMGVINPGSGYTNYNENFKDRVTMTRHTSISTAYMELSRLRSDDTAVYFCARTYGKYGGAMDFWGQGTLVTVSS
VL: DIQMTQSPSSLSASVGDRVTITCKASQSVSNDVAWYQQKPGKAPKLLIYYISNRYTGVPSRFSGSGSGTDFTFTISSLQPEDIATYYCQQDYSSPPTFGQGTKLEIKR
[4]
  IC50 (nM) from S2366 Assay: 57.3 nM
[6]
  FXIa kit Activity Assay (nM), IC50: 8.79 nM

B14: humanized antibody 14F3-Z3 (antibody, human IgG1, kappa, V domains shown)
VH: QVQLVQSGAEVKKPGSSVKVSCKASGYAFSNYLIEWVRQAPGQGLEWMGVINPGSGYTNYNENFKDRVTITADESTSTAYMELSSLRSEDTAVYYCARTYGKYGGAMDFWGQGTTVTVSS
VL: DIQMTQSPSFLSASVGDRVTITCKASQSVSNDVAWYQQKPGKAPKLLIYYISNRYTGVPSRFSGSGSGTDFTLTISSLQPEDFATYYCQQDYSSPPTFGQGTKLEIKR
[4]
  IC50 (nM) from S2366 Assay: 56.3 nM
[6]
  FXIa kit Activity Assay (nM), IC50: 13.5 nM

B15: humanized antibody 14F3-Z4 (antibody, human IgG1, kappa, V domains shown)
VH: QVQLVQSGAEVKKPGSSVKVSCKASGYAFSNYLIEWVRQAPGQGLEWMGVINPGSGYTNYNENFKDRVTITADESTSTAYMELSSLRSEDTAVYFCARTYGKYGGAMDFWGQGTTVTVSS
VL: DIQMTQSPSFLSASVGDRVTITCKASQSVSNDVAWYQQKPGKAPKLLIYYISNRYTGVPSRFSGSGSGTDFTLTISSLQPEDFATYFCQQDYSSPPTFGQGTKLEIKR
[4]
  IC50 (nM) from S2366 Assay: 55.8 nM
[6]
  FXIa kit Activity Assay (nM), IC50: 13.6 nM

B16: humanized antibody 14F3-1 (antibody, human IgG1, kappa, V domains shown)
VH: QVQLVQSGAEVKKPGASVKVSCKASGYTFTNYLIEWVRQAPGQGLEWMGVINPGSGYTNYNENFKDRVTMTRDTSISTAYMELSRLRSDDTAVYYCARTYGKYGGAMDFWGQGTTVTVSS
VL: DIVMTQSPDSLAVSLGERATINCKASQSVSNDVAWYQQKPGQPPKLLIYYISNRYTGVPDRFSGSGSGTDFTLTISSLQAEDVAVYYCQQDYSSPPTFGGGTKLEIKR
notes: To be verified
[4]
  IC50 (nM) from S2366 Assay: 45.4 nM
[5]
  Kd: 0.000809 nM
  koff: 1.05e-05 s⁻¹
  kon: 1.3e+07 M⁻¹ s⁻¹
[6]
  FXIa kit Activity Assay (nM), IC50: 7.5 nM

B17: humanized antibody 14F3-2 (antibody, human IgG1, kappa, V domains shown)
VH: QVQLVQSGAEVKKPGASVKVSCKASGYTFTNYLIEWVRQAPGQGLEWMGVINPGSGYTNYNENFKDRVTMTRDTSISTAYMELSRLRSDDTAVYYCARTYGKYGGAMDFWGQGTTVTVSS
VL: DIVMTQSPDSLAVSLGERATINCKASQSVSNDVAWYQQKPGQPPKLLIYYISNRYTGVPDRFSGSGSGTDFTLTISSLQAEDVAVYFCQQDYSSPPTFGGGTKLEIKR
[4]
  IC50 (nM) from S2366 Assay: 43 nM
[6]
  FXIa kit Activity Assay (nM), IC50: 9.69 nM

B18: humanized antibody 14F3-3 (antibody, human IgG1, kappa, V domains shown)
VH: QVQLVQSGAEVKKPGASVKVSCKASGYTFTNYLIEWVRQAPGQGLEWIGVINPGSGYTNYNENFKDRATLTADTSISTAYMELSRLRSDDTAVYFCARTYGKYGGAMDFWGQGTTVTVSS
VL: DIVMTQSPDSLAVSLGERATINCKASQSVSNDVAWYQQKPGQPPKLLIYYISNRYTGVPDRFSGSGSGTDFTLTISSLQAEDVAVYYCQQDYSSPPTFGGGTKLEIKR
[4]
  IC50 (nM) from S2366 Assay: 52.7 nM
[6]
  FXIa kit Activity Assay (nM), IC50: 10.7 nM

B19: humanized antibody 14F3-4 (antibody, human IgG1, kappa, V domains shown)
VH: QVQLVQSGAEVKKPGASVKVSCKASGYTFTNYLIEWVRQAPGQGLEWIGVINPGSGYTNYNENFKDRATLTADTSISTAYMELSRLRSDDTAVYFCARTYGKYGGAMDFWGQGTTVTVSS
VL: DIVMTQSPDSLAVSLGERATINCKASQSVSNDVAWYQQKPGQPPKLLIYYISNRYTGVPDRFSGSGSGTDFTLTISSLQAEDVAVYFCQQDYSSPPTFGGGTKLEIKR
[4]
  IC50 (nM) from S2366 Assay: 64.7 nM
[6]
  FXIa kit Activity Assay (nM), IC50: 15.7 nM
